Measured values taken from PMC9568614.
Several values for one entry are separate records, joined by “and”; a condition that tells them apart may be missing. Equal values may be shown once. Blank lines part the entries; values can stand above or below the substance they belong to.

Experiments:
[1] = target: Fc-MST-HN (IgG1 Fc fragment with M252Y, S254T, T256E, H433K, N434F) (human); assay: crystal structure; Fc-MST-HN with EndoH- and thrombin-treated FcRn:beta2M, complex isolated by preparative SEC; crystals from 0.1 M sodium cacodylate pH 7.0, 293 K
[2] = target: FcRn coupled to the FcRn Affinity Column (Roche) (UniProt P55899); assay: FcRn-affinity chromatography; FcRn Affinity Column (Roche); antibody or fragment injected at pH 5.5 (20 mM MES, 150 mM NaCl), pH gradient to pH 8.8 (20 mM Tris-HCl, 150 mM NaCl); elution pH read
[3] = target: recombinant human FcRn (FcRn alpha-chain with C-terminal BirA 10x-Histidine tag, with beta-2-microglobulin) (human) (UniProt P55899); assay: SPR; pH 6.0
[4] = target: recombinant human FcRn (FcRn alpha-chain with C-terminal BirA 10x-Histidine tag, with beta-2-microglobulin) (human) (UniProt P55899); assay: SPR
[5] = target: recombinant human FcRn (FcRn alpha-chain with C-terminal BirA 10x-Histidine tag, with beta-2-microglobulin) (human) (UniProt P55899); assay: SPR; pH 7.4
Fc-MST (human) = assay: ITC; 37 °C, PEAQ-ITC; as drawn in the figure FcRn:b2M titrated into the Fc (reverse setup: 6 uM in the cell, 165 uM in the syringe); fit A + B + B with 2 symmetric sites, macroscopic K (Sedphat); buffer and pH not stated; four runs for Fc-MST-HN (values averaged), one for Fc-YTE
Fc-MST-HN (human) [6] = assay: SPR; IBIS MX96; IgG or Fc randomly coupled on a SensEye G Easy2Spot array at four spotting concentrations (60, 30, 15, 7.5 nM); monomeric human FcRn injected 0.49-1000 nM in PBS, 0.075% Tween 80, pH 6.0; equilibrium analysis, Langmuir 1:1 model; one KD for each spot (with its RU), later interpolated to Rmax = 700 RU
Fc-WT (human) = assay: as above
[7] = target: anti-HEL IgG1-MST-HN (human); assay: as above
anti-HEL IgG1-WT (human) = assay: as above
Fc-MST-HN (human) [8] = assay: SPR; IBIS MX96; IgG or Fc randomly coupled on a SensEye G Easy2Spot array at four spotting concentrations (60, 30, 15, 7.5 nM); monomeric human FcRn injected 0.49-1000 nM in PBS, 0.075% Tween 80, pH 7.4; equilibrium analysis, Langmuir 1:1 model; one KD for each spot (with its RU), later interpolated to Rmax = 700 RU

Substance: Fc-MST-HN (IgG1 Fc fragment with M252Y, S254T, T256E, H433K, N434F) (domain or fragment)
elution pH [2]: 8.7 pH

Substance: anti-biotin IgG1-WT (from UniProt P01857)
Kd [3]: 200 nM

Substance: anti-HEL IgG1-WT (full-size IgG1) (antibody)
elution pH [2]: 7 pH

Substance: anti-HEL IgG1-MST-HN (full-size IgG1) (from UniProt P01857)
Kd [4]: 39 nM | Kd [5]: 899 nM

Second part, the substance after the results:

stoichiometry N [1]: 2 FcRn per Fc
Substance: FcRn:beta2M (FcRn residues 1-297 with beta-2-microglobulin residues 1-119), EndoH-treated, tags removed by thrombin (from UniProt P55899 24-297; P61769 21-119) (complex)

elution pH [2]: 7 pH
Substance: Fc-WT (wild-type human IgG1 Fc fragment) (domain or fragment)

Kd [4]: 381 nM
Substance: anti-HEL IgG1-WT (full-size IgG1) (from UniProt P01857)

Kd (Fc-MST (human)): 66.2 nM
Substance: FcRn:ß2M (recombinant extracellular domain of human FcRn in complex with beta-2-microglobulin, as used for ITC) (from UniProt P55899 24-297; P61769 21-119) (receptor)

Kd (Fc-MST-HN (human) [6]): 37 nM and 34 nM and 32 nM | Kd (Fc-WT (human)): 240 nM and 270 nM | Kd [7]: 37 nM and 34 nM | Kd (anti-HEL IgG1-WT (human)): 600 nM | Kd (Fc-MST-HN (human) [8]): 1150 nM and 1040 nM and 830 nM
Substance: recombinant human FcRn (FcRn α-chain with ß2-microglobulin) (from UniProt P55899 24-297; P61769 21-119) (receptor)

elution pH [2]: 8.7 pH
Substance: anti-HEL IgG1-MST-HN (full-size IgG1) (antibody)
